Experimental data from the RNAGym collection of RNA variant scans (doi:10.7554/elife.90254).

B1: LINE1-full (parent)
chain: UACGUAGGUGGUUUUCCCCUGAUAGUGCUAAGGGGGCCUGGAAGUUUGGACUGGGCAGAGCUCAACACAGCGUGGCAAAGUGGCUGUGGCUAGACUGCCUCUCUGGAUUCCUCGUCACUCAGCAGGGCAUCUCUGAGAGAAAUGCC

Variants of: B1
Test: self-cleavage, relative activity (ratio to wild type); higher = more cleavage; in vitro, sequencing; the parent is a self-cleaving ribozyme

| Variant | self-cleavage |
| --- | --- |
| UACGUAGGUGGUUUUCCCCUGAUAGUGCUAAGGGGGCCUGGGAGUUUGGACUGGGCAGAGCUCAACACAGCGUGGCAUAGUGGCUGUGGCUAGACUGCCUCUCUGGAUUCCUCGUCACUCAGCAGGGCAUCUCUGAGAGAAAUGCC [A42G A78U] | 1.66 |
| UACGUAGGUGGUUUUCCCCUGAUAGUGCUAAGGGGGCCUGGGAGUUUGGACUGGGCAGAGCUCAACACAGCGUGGCAAAGUGGCUGUGGCUAGGCUGCCUCUCUGGAUUCCUCGUCACUCAGCAGGGCAUCUCUGAGAGAAAUGCC [A42G A94G] | 0.26 |
| UACGUAGGUGGUUUUCCCCUGAUAGUGCUAAGGGGGCCUGGGAGUUUGGACUGGGCAGAGCUCAACACAGCGUGGCAAAGUGGCUGUGGCUAGUCUGCCUCUCUGGAUUCCUCGUCACUCAGCAGGGCAUCUCUGAGAGAAAUGCC [A42G A94U] | 0.21 |
| UACGUAGGUGGUUUUCCCCUGAUAGUGCUAAGGGGGCCUGGGAGUUUGGACUGGGCAGAGCUCAACACAGCGUGGCAAAGUGGCUGUGGCUAGACUGCCUCUCUGGGUUCCUCGUCACUCAGCAGGGCAUCUCUGAGAGAAAUGCC [A42G A107G] | 1.7 |
| UACGUAGGUGGUUUUCCCCUGAUAGUGCUAAGGGGGCCUGGGAGUUUGGACUGGGCAGAGCUCAACACAGCGUGGCAAAGUGGCUGUGGCUAGACUGCCUCUCUGGAUUCCUCGUCGCUCAGCAGGGCAUCUCUGAGAGAAAUGCC [A42G A117G] | 1.71 |
| UACGUAGGUGGUUUUCCCCUGAUAGUGCUAAGGGGGCCUGGGAGUUUGGACUGGGCAGAGCUCAACACAGCGUGGCAAAGUGGCUGUGGCUAGACUGCCUCUCUGGAUUCCUCGUCACUCGGCAGGGCAUCUCUGAGAGAAAUGCC [A42G A121G] | 1.59 |
| UACGUAGGUGGUUUUCCCCUGAUAGUGCUAAGGGGGCCUGGGAGUUUGGACUGGGCAGAGCUCAACACAGCGUGGCAAAGUGGCUGUGGCUAGACUGCCUCUCUGGAUUCCUCGUCACUCUGCAGGGCAUCUCUGAGAGAAAUGCC [A42G A121U] | 1.4 |
| UACGUAGGUGGUUUUCCCCUGAUAGUGCUAAGGGGGCCUGGGAGUUUGGACUGGGCAGAGCUCAACACAGCGUGGCAAAGUGGCUGUGGCUAGACUGCCUCUCUGGAUUCCUCGUCACUCAGCCGGGCAUCUCUGAGAGAAAUGCC [A42G A124C] | 2.96 |
| UACGUAGGUGGUUUUCCCCUGAUAGUGCUAAGGGGGCCUGGGAGUUUGGACUGGGCAGAGCUCAACACAGCGUGGCAAAGUGGCUGUGGCUAGACUGCCUCUCUGGAUUCCUCGUCACUCAGCGGGGCAUCUCUGAGAGAAAUGCC [A42G A124G] | 0.87 |
| UACGUAGGUGGUUUUCCCCUGAUAGUGCUAAGGGGGCCUGGGAGUUUGGACUGGGCAGAGCUCAACACAGCGUGGCAAAGUGGCUGUGGCUAGACUGCCUCUCUGGAUUCCUCGUCACUCAGCAGGGCGUCUCUGAGAGAAAUGCC [A42G A129G] | 1.68 |
| UACGUAGGUGGUUUUCCCCUGAUAGUGCUAAGGGGGCCUGGGAGUUUGGACUGGGCAGAGCUCAACACAGCGUGGCAAAGUGGCUGUGGCUAGACUGCCUCUCUGGAUUCCUCGUCACUCAGCAGGGCAUCUCUGGGAGAAAUGCC [A42G A136G] | 1.53 |
| UACGUAGGUGGUUUUCCCCUGAUAGUGCUAAGGGGGCCUGGGAGUUUGGACUGGGCAGAGCUCAACACAGCGUGGCAAAGUGGCUGUGGCUAGACUGCCUCUCUGGAUUCCUCGUCACUCAGCAGGGCAUCUCUGUGAGAAAUGCC [A42G A136U] | 1.4 |
| UACGUAGGUGGUUUUCCCCUGAUAGUGCUAAGGGGGCCUGGGAGUUUGGACUGGGCAGAGCUCAACACAGCGUGGCAAAGUGGCUGUGGCUAGACUGCCUCUCUGGAUUCCUCGUCACUCAGCAGGGCAUCUCUGAGCGAAAUGCC [A42G A138C] | 0.41 |
| UACGUAGGUGGUUUUCCCCUGAUAGUGCUAAGGGGGCCUGGGAGUUUGGACUGGGCAGAGCUCAACACAGCGUGGCAAAGUGGCUGUGGCUAGACUGCCUCUCUGGAUUCCUCGUCACUCAGCAGGGCAUCUCUGAGAGAGAUGCC [A42G A141G] | 1.38 |
| UACGUAGGUGGUUUUCCCCUGAUAGUGCUAAGGGGGCCUGGGAGUUUGGACUGGGCAGAGCUCAACACAGCGUGGCAAAGUGGCUGUGGCUAGACUGCCUCUCUGGAUUCCUCGUCACUCAGCAGGGCAUCUCUGAGAGAAGUGCC [A42G A142G] | 1.48 |
| UACGUAGGUGGUUUUCCCCUGAUAGUGCUAAGGGGGCCUGGGAGUUUGGAAUGGGCAGAGCUCAACACAGCGUGGCAAAGUGGCUGUGGCUAGACUGCCUCUCUGGAUUCCUCGUCACUCAGCAGGGCAUCUCUGAGAGAAAUGCC [A42G C51A] | 2.3 |
| UACGUAGGUGGUUUUCCCCUGAUAGUGCUAAGGGGGCCUGGGAGUUUGGACUGGGCAGAGCUUAACACAGCGUGGCAAAGUGGCUGUGGCUAGACUGCCUCUCUGGAUUCCUCGUCACUCAGCAGGGCAUCUCUGAGAGAAAUGCC [A42G C63U] | 0.4 |
| UACGUAGGUGGUUUUCCCCUGAUAGUGCUAAGGGGGCCUGGGAGUUUGGACUGGGCAGAGCUCAAUACAGCGUGGCAAAGUGGCUGUGGCUAGACUGCCUCUCUGGAUUCCUCGUCACUCAGCAGGGCAUCUCUGAGAGAAAUGCC [A42G C66U] | 0.01 |
| UACGUAGGUGGUUUUCCCCUGAUAGUGCUAAGGGGGCCUGGGAGUUUGGACUGGGCAGAGCUCAACACAGGGUGGCAAAGUGGCUGUGGCUAGACUGCCUCUCUGGAUUCCUCGUCACUCAGCAGGGCAUCUCUGAGAGAAAUGCC [A42G C71G] | 0.35 |
| UACGUAGGUGGUUUUCCCCUGAUAGUGCUAAGGGGGCCUGGGAGUUUGGACUGGGCAGAGCUCAACACAGCGUGGCAAAGUGGCUGUGGCUAGACUGCUUCUCUGGAUUCCUCGUCACUCAGCAGGGCAUCUCUGAGAGAAAUGCC [A42G C99U] | 1.11 |

| Variant | self-cleavage |
| --- | --- |
| UACGUAGGUGGUUUUCCCCUGAUAGUGCUAAGGGGGCCUGGGAGUUUGGACUGGGCAGAGCUCAACACAGCGUGGCAAAGUGGCUGUGGCUAGACUGCCUAUCUGGAUUCCUCGUCACUCAGCAGGGCAUCUCUGAGAGAAAUGCC [A42G C101A] | 0.95 |
| UACGUAGGUGGUUUUCCCCUGAUAGUGCUAAGGGGGCCUGGGAGUUUGGACUGGGCAGAGCUCAACACAGCGUGGCAAAGUGGCUGUGGCUAGACUGCCUCUCUGGAUUCCUUGUCACUCAGCAGGGCAUCUCUGAGAGAAAUGCC [A42G C113U] | 1.12 |
| UACGUAGGUGGUUUUCCCCUGAUAGUGCUAAGGGGGCCUGGGAGUUUGGACUGGGCAGAGCUCAACACAGCGUGGCAAAGUGGCUGUGGCUAGACUGCCUCUCUGGAUUCCUCGUCACUCAGCAGGGUAUCUCUGAGAGAAAUGCC [A42G C128U] | 1.28 |
| UACGUAGGUGGUUUUCCCCUGAUAGUGCUAAGGGGGCCUGGGAGUUUGGACUGGGCAGAGCUCAACACAGCGUGGCAAAGUGGCUGUGGCUAGACUGCCUCUCUGGAUUCCUCGUCACUCAGCAGGGCAUCUCUGAGAGAAAUGGC [A42G C145G] | 1.14 |
| UACGUAGGUGGUUUUCCCCUGAUAGUGCUAAGGGGGCCUGGGAAUUUGGACUGGGCAGAGCUCAACACAGCGUGGCAAAGUGGCUGUGGCUAGACUGCCUCUCUGGAUUCCUCGUCACUCAGCAGGGCAUCUCUGAGAGAAAUGCC [A42G G44A] | 1.27 |
| UACGUAGGUGGUUUUCCCCUGAUAGUGCUAAGGGGGCCUGGGAGUUUGGACUGCGCAGAGCUCAACACAGCGUGGCAAAGUGGCUGUGGCUAGACUGCCUCUCUGGAUUCCUCGUCACUCAGCAGGGCAUCUCUGAGAGAAAUGCC [A42G G54C] | 0.84 |
| UACGUAGGUGGUUUUCCCCUGAUAGUGCUAAGGGGGCCUGGGAGUUUGGACUGUGCAGAGCUCAACACAGCGUGGCAAAGUGGCUGUGGCUAGACUGCCUCUCUGGAUUCCUCGUCACUCAGCAGGGCAUCUCUGAGAGAAAUGCC [A42G G54U] | 1.06 |
| UACGUAGGUGGUUUUCCCCUGAUAGUGCUAAGGGGGCCUGGGAGUUUGGACUGGGCAGAGCUCAACACAGCGUAGCAAAGUGGCUGUGGCUAGACUGCCUCUCUGGAUUCCUCGUCACUCAGCAGGGCAUCUCUGAGAGAAAUGCC [A42G G74A] | 0.8 |
| UACGUAGGUGGUUUUCCCCUGAUAGUGCUAAGGGGGCCUGGGAGUUUGGACUGGGCAGAGCUCAACACAGCGUGACAAAGUGGCUGUGGCUAGACUGCCUCUCUGGAUUCCUCGUCACUCAGCAGGGCAUCUCUGAGAGAAAUGCC [A42G G75A] | 1.14 |
| UACGUAGGUGGUUUUCCCCUGAUAGUGCUAAGGGGGCCUGGGAGUUUGGACUGGGCAGAGCUCAACACAGCGUGGCAAACUGGCUGUGGCUAGACUGCCUCUCUGGAUUCCUCGUCACUCAGCAGGGCAUCUCUGAGAGAAAUGCC [A42G G80C] | 0.62 |
| UACGUAGGUGGUUUUCCCCUGAUAGUGCUAAGGGGGCCUGGGAGUUUGGACUGGGCAGAGCUCAACACAGCGUGGCAAAGUAGCUGUGGCUAGACUGCCUCUCUGGAUUCCUCGUCACUCAGCAGGGCAUCUCUGAGAGAAAUGCC [A42G G82A] | 1.95 |
| UACGUAGGUGGUUUUCCCCUGAUAGUGCUAAGGGGGCCUGGGAGUUUGGACUGGGCAGAGCUCAACACAGCGUGGCAAAGUGACUGUGGCUAGACUGCCUCUCUGGAUUCCUCGUCACUCAGCAGGGCAUCUCUGAGAGAAAUGCC [A42G G83A] | 0.96 |
| UACGUAGGUGGUUUUCCCCUGAUAGUGCUAAGGGGGCCUGGGAGUUUGGACUGGGCAGAGCUCAACACAGCGUGGCAAAGUGGCUGUAGCUAGACUGCCUCUCUGGAUUCCUCGUCACUCAGCAGGGCAUCUCUGAGAGAAAUGCC [A42G G88A] | 0.09 |
| UACGUAGGUGGUUUUCCCCUGAUAGUGCUAAGGGGGCCUGGGAGUUUGGACUGGGCAGAGCUCAACACAGCGUGGCAAAGUGGCUGUGACUAGACUGCCUCUCUGGAUUCCUCGUCACUCAGCAGGGCAUCUCUGAGAGAAAUGCC [A42G G89A] | 0.03 |
| UACGUAGGUGGUUUUCCCCUGAUAGUGCUAAGGGGGCCUGGGAGUUUGGACUGGGCAGAGCUCAACACAGCGUGGCAAAGUGGCUGUGCCUAGACUGCCUCUCUGGAUUCCUCGUCACUCAGCAGGGCAUCUCUGAGAGAAAUGCC [A42G G89C] | 0 |
| UACGUAGGUGGUUUUCCCCUGAUAGUGCUAAGGGGGCCUGGGAGUUUGGACUGGGCAGAGCUCAACACAGCGUGGCAAAGUGGCUGUGUCUAGACUGCCUCUCUGGAUUCCUCGUCACUCAGCAGGGCAUCUCUGAGAGAAAUGCC [A42G G89U] | 0.02 |
| UACGUAGGUGGUUUUCCCCUGAUAGUGCUAAGGGGGCCUGGGAGUUUGGACUGGGCAGAGCUCAACACAGCGUGGCAAAGUGGCUGUGGCUAAACUGCCUCUCUGGAUUCCUCGUCACUCAGCAGGGCAUCUCUGAGAGAAAUGCC [A42G G93A] | 0.01 |
| UACGUAGGUGGUUUUCCCCUGAUAGUGCUAAGGGGGCCUGGGAGUUUGGACUGGGCAGAGCUCAACACAGCGUGGCAAAGUGGCUGUGGCUAUACUGCCUCUCUGGAUUCCUCGUCACUCAGCAGGGCAUCUCUGAGAGAAAUGCC [A42G G93U] | 0.05 |
| UACGUAGGUGGUUUUCCCCUGAUAGUGCUAAGGGGGCCUGGGAGUUUGGACUGGGCAGAGCUCAACACAGCGUGGCAAAGUGGCUGUGGCUAGACUGCCUCUCUGUAUUCCUCGUCACUCAGCAGGGCAUCUCUGAGAGAAAUGCC [A42G G106U] | 1.1 |
